PMC11813584, “An odorant-binding protein functions in fire ant social immunity interfacing with innate immunity” (Open Biology, 2025)

Molecular target: SiOBP15, purified, His-tag removed (Solenopsis invicta)
Assay: SPR; open SPR; SiOBP15 coupled to a COOH chip until saturation, SiApoLp-III or SiFABP5 titrated as analyte; one-to-one model (TraceDrawer)

SiFABP5, purified, His-tag removed (natural protein)
Kd: 1100 nM
